# Values of other authors as cited in patent US20080089848A1, “INTRATHECAL INJECTION OF MICROBUBBLES” (priority 2006, published 2008).
# B1: tPA: thrombolytic agent (protein, UniProt P00750 36-562, looked up)
# Tissue-type plasminogen …: SYQVICRDEKTQMIYQQHQSWLRPVLRSNRVEYCWCNSGRAQCHSVPVKSCSEPRCFNGGTCQQALYFSDFVCQCPEGFAGKCCEIDTRATCYEDQGISYRGTWSTAESGAECTNWNSSALAQKPYSGRRPDAIRLGLGNHNYCRNPDRDSKPWCYVFKAGKYSSEFCSTPACSEGNSDCYFGNGSAYRGTHSLTESGASCLPWNSMILIGKVYTAQNPSAQALGLGKHNYCRNPDGDAKPWCHVLKNRRLTWEYCDVPSCSTCGLRQYSQPQFRIKGGLFADIASHPWQAAIFAKHRRSPGERFLCGGILISSCWILSAAHCFQERFPPHHLTVILGRTYRVVPGEEEQKFEVEKYIVHKEFDDDTYDNDIALLQLKSDSSRCAQESSVVRTVCLPPADLQLPDWTECELSGYGKHEALSPFYSERLKEAHVRLYPSSRCTSQHLLNRTVTDNMLCAGDTRSGGPQANLHDACQGDSGGPLVCLNDGRMTLVGIISWGLGCGQKDVPGVYTKVTNYLDWIRDNMRP
# B2: BMP-7: bone morphogenetic protein (protein, UniProt P18075 293-431, looked up)
# Bone morphogenetic protein 7: STGSKQRSQNRSKTPKNQEALRMANVAENSSSDQRQACKKHELYVSFRDLGWQDWIIAPEGYAAYYCEGECAFPLNSYMNATNHAIVQTLVHFINPETVPKPCCAPTQLNAISVLYFDDSSNVILKKYRNMVVRACGCH
# Assays:
# [1] = infusion of tPA and microbubbles
# stroke = settings: intracisternal injection into the cisterna magna, rats
Molecule,clot lysis [1],functional recovery of neurons after stroke (stroke)
B1,accelerate clot lysis,
B2,,promotes functional recovery
